# Source: publication PMC11601584, “The RNA receptor RIG-I binding synthetic oligodeoxynucleotide promotes pneumonia survival”
# T1: rhRIG-I (236-925), CARD-less (Homo sapiens, UniProt O95786 236-925)
# T1 sequence: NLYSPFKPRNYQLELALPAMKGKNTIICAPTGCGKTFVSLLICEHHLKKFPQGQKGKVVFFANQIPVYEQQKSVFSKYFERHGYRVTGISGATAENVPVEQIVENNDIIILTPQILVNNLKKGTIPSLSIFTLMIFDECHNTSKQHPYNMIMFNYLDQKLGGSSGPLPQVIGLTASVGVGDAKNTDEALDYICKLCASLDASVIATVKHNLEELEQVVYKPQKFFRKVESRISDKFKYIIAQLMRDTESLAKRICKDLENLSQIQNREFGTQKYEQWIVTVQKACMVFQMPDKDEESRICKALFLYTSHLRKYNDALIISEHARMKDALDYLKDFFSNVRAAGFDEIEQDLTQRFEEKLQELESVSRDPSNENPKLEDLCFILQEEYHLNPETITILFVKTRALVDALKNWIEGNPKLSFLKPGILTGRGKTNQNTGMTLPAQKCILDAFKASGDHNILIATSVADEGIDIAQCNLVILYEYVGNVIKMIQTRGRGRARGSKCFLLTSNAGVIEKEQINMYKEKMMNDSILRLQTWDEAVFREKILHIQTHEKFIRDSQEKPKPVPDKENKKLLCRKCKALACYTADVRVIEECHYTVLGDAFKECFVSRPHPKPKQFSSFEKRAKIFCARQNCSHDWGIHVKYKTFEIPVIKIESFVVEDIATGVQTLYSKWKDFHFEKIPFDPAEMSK
# B1: ODN M362, biotinylated (ssDNA)
# DNA: TCGTCGTCGTTCGAACGACGTTGAT
# modifications: complete phosphorothioate backbone
# B2: 12-mer 5'ppp dsRNA (dsRNA)
# RNA 1: CAUGUGGAGCCC
# RNA 2: GGGCUCCACAUG
# modifications: 5' triphosphate on strand 2
# B3: ODN M362, FAM (ssDNA)
# DNA: TCGTCGTCGTTCGAACGACGTTGAT
# modifications: complete phosphorothioate backbone
# Experiments:
# [1] = target: T1, rhRIG-I (236-925), CARD-less; assay: EMSA; ODN stock 2.5 uM, protein 0-32 uM, on ice; FP: 20 mM Hepes pH 7.5, 150 mM NaCl, 2 mM TCEP, 4 mM MgCl2, 5% glycerol, 25 C, 2.5 nM labeled oligo; EMSA: 30 min on ice, 6% native gel, 0.5x TBE; conditions: protein: recombinant; tags: N-terminal His-tag, removed by TEV; 25-mer described as palindromic; partly self-complementary
# [2] = target: T1, rhRIG-I (236-925), CARD-less; assay: fluorescence anisotropy; no nucleotide; 4 mM MgCl2; Kd only in figure; FP: 20 mM Hepes pH 7.5, 150 mM NaCl, 2 mM TCEP, 4 mM MgCl2, 5% glycerol, 25 C, 2.5 nM labeled oligo; EMSA: 30 min on ice, 6% native gel, 0.5x TBE; conditions: protein: recombinant; tags: N-terminal His-tag, removed by TEV; label: 5' FAM on strand 1; blunt
# [3] = target: T1, rhRIG-I (236-925), CARD-less; assay: fluorescence anisotropy; no nucleotide; 4 mM MgCl2; affinity similar to RNA, Kd only in figure; FP: 20 mM Hepes pH 7.5, 150 mM NaCl, 2 mM TCEP, 4 mM MgCl2, 5% glycerol, 25 C, 2.5 nM labeled oligo; EMSA: 30 min on ice, 6% native gel, 0.5x TBE; conditions: protein: recombinant; tags: N-terminal His-tag, removed by TEV; label: 5' FAM; 25-mer described as palindromic; partly self-complementary
binder,measurement,setting,value
B1,binding result,[1],binds
B2,binding result,[2],binds
B3,binding result,[3],binds
